Measured values taken from article PMC5344537.
“And” between values parts separate entries of the source, which are not always exact repeats. Equal entries are not always repeated.

What was measured:
[1] = target: intercellular adhesion molecule-1 (ICAM-1) of epithelial cells (human (endogenous in primary tonsil, cervical and foreskin keratinocytes)) (UniProt P05362)
[2] = target: intercellular adhesion molecule-1 (ICAM-1) of epithelial cells (human (endogenous in primary tonsil, cervical and foreskin keratinocytes)) (UniProt P05362); remark: listed apart in the source

Chain of UniProt P05362 (P05362 28-532): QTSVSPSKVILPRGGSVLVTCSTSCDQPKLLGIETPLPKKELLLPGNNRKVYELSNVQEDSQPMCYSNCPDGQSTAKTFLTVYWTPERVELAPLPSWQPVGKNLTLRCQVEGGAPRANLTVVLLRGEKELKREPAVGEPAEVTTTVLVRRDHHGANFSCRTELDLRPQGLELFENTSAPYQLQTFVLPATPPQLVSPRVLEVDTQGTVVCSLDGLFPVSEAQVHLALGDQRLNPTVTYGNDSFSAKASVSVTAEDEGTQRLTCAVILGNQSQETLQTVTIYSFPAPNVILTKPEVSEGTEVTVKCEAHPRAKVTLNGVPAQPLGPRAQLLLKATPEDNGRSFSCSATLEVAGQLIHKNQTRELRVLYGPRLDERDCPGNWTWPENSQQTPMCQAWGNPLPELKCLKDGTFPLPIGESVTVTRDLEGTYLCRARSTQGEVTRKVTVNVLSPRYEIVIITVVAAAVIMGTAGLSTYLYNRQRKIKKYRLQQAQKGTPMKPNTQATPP

Q: Which results are given for “lymphocyte receptor function-associated antigen-1 (LFA-1) (from UniProt P20701 26-1170; P05107 23-769) (complex)”?
A: reduction of HIV-1 SF33 spread from AP and BL membranes of polarized cervical and foreskin epithelial cells to activated PBMC, in the presence of antibodies to LFA-1 and ICAM-1 (ELISA p24) [1]: 40% and 50%; reduction of spread of R5-tropic HIV-1 SF170 from polarized cervical and foreskin epithelial cells to CD4+ T lymphocytes, in the presence of antibodies to LFA-1 and ICAM-1 (ELISA p24) [1]: 70%; reduction of spread of X4-tropic HIV-1 92UG029 from polarized cervical and foreskin epithelial cells to CD4+ T lymphocytes, in the presence of antibodies to LFA-1 and ICAM-1 (ELISA p24) [1]: 50%; reduction of HIV-1 SF33 spread from AP and BL surfaces of polarized tonsil epithelial cells to activated PBMC, in the presence of antibodies against ICAM-1 and LFA-1 (ELISA p24 of PBMC after 7 days) [2]: 65 to 70%
